The record followed here is patent US20150291692A1 (INNATE PHARMA, published 2015).

For assay [1], the target named is T1, KIR3DL2 recombinant protein (R&D Systems) (human, UniProt P43630 28-340).
T1 construct: Bought protein; also called rec KIR3DL2; recombinant KIR3DL2-Fc fusion protein; not shown: Fc part of the bought fusion protein; not described
Briefly: regular kinetic method.

In assay [2] the target is T1, KIR3DL2 recombinant protein (R&D …). Nature of the assay: SCK kinetic method.
Assay [3] concerns the target T2, KIR3DL1 expressed on cells (human, UniProt P43629 22-444).
T2 construct: also called HEK-293T/KIR3DL1
Nature of the assay: flow cytometry on HEK KIR3DL1 cells (row HEK-KIR3DL1).

The target of assay [4] is T1, KIR3DL2 recombinant protein (R&D …). Nature of the assay: SPR (Biacore T100), antibody injected over immobilised recombinant KIR3DL2, bivalent affinity, pH 7.2.
Assay [5] concerns the target T3, NK cells, including normal KIR3DL2+ NK cells (Homo sapiens, UniProt P43630).
T3 construct: full-length receptor on the cell surface; also called gate NK GaM PE+; KIR3DL2 on CD4-negative NK cells in the blood of the Sezary Syndrome patient
Nature of the assay: flow cytometry of whole blood of a Sezary Syndrome patient, antibody + GaM-PE against CD4; lower gate (CD4-negative NK cells).

Assay [6] deals with T4, KIR3DL2 on fresh Sezary Syndrome cells of patients (human, UniProt P43630 22-455).
T4 construct: whole, on cells; also called SS cells
Nature of the assay: flow cytometry of whole blood of a Sezary Syndrome patient, antibody + GaM-PE against CD4; upper gate (CD4+ KIR3DL2+ leukemic Sezary cells).

T1 sequence (P43630 28-340 A108T): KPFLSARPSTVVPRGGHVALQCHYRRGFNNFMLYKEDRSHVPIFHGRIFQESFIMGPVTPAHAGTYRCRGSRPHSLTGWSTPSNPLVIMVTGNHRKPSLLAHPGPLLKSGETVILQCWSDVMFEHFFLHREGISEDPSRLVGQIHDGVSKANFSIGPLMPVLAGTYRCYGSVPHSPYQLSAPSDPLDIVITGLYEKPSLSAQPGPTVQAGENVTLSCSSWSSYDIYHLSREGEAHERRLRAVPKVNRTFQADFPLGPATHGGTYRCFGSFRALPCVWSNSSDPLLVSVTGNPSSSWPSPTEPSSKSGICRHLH
T2 sequence (P43629 22-444 limits assumed): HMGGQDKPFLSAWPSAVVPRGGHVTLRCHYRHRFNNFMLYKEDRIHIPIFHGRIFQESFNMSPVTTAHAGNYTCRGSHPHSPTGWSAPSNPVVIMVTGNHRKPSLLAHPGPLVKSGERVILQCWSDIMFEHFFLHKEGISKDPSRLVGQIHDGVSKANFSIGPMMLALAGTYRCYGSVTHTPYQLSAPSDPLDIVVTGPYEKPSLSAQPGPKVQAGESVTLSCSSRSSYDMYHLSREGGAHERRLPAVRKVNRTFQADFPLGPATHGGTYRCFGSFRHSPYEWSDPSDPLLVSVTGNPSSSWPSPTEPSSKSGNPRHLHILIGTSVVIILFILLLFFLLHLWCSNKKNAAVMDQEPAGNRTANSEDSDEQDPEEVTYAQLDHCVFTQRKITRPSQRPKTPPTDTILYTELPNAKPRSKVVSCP
T3 sequence (P43630 22-455 limits assumed): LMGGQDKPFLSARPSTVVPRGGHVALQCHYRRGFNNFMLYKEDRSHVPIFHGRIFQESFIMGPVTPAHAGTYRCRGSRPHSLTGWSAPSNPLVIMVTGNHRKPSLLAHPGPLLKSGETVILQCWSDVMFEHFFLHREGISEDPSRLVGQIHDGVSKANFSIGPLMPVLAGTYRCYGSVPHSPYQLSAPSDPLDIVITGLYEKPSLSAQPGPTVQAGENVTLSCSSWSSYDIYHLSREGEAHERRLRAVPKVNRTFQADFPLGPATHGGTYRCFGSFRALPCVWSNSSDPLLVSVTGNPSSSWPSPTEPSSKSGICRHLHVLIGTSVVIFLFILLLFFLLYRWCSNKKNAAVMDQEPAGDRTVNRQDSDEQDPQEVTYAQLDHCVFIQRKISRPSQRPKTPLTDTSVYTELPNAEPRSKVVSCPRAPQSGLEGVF
T4 sequence (P43630 22-455): as the sequence (P43630 22-455 limits assumed) above

B1: chimeric 15C11 of human IgG1 Fc isotype (antibody, V domains shown)
VH: EVKLEESGGGLVQPGGSMKLSCAASGFTFSDAWMDWVRQSPEKGLEWVAEIRSKANNHATYYAESVKGRFTISRDDSKSSVYLRMNSLRAEDTGIYYCTGGYYPVYWGQGTLVTVSA
VL: DIQMTQSPSSLSASLGGKVTITCKASQDINKNIAWYQHKPGKGPRLLIHYTSTLQPGFPSRFSGSGSGRDYSFSISNLEPEDLATYYCLQYDNLLTFGGGTKLEIK
notes: Human-mouse chimeric antibody with the variable regions of murine 15C11; also called chim15C11; Chim15C11
For B1, in assay [1], the Kd was 0.68 nM and the koff was determined as 0.00029 s⁻¹. In assay [2], the Kd came to 0.22 nM and the koff worked out at 0.000108 s⁻¹.

B2: Hum23-K32-15C11 (antibody, V domains shown)
VH: EVQLVESGGGLVQPGGSLRLSCAASGFTFSDAWMDWVRQAPGKGLEWVGEIRSKANNHATYYAASVKGRFTISRDDSKNSLYLQMNSLKTEDTAVYYCTGGYYPVYWGQGTLVTVSS
VL: DIQMTQSPSSLSASVGDRVTITCKASQDINKNIAWYQHKPGKAPKLLIHYTSTLQPGVPSRFSGSGSGRDYTFTISSLQPEDIATYYCLQYDNLLTFGGGTKVEIK
notes: also called H2/L3
Regarding B2, the Kd worked out at 1.24 nM in assay [1] and 0.5 nM in assay [2]. Besides, the koff worked out at 0.000329 s⁻¹ in assay [1] and 0.00014 s⁻¹ in assay [2].

B3: Hum12-K32-15C11 (antibody, V domains shown)
VH: EVQLVESGGGLVQPGGSLRLSCAASGFTFSDAWMDWVRQAPGKGLEWVGRIRSKANNHATAYAASVKGRFTISRDDSKNSLYLQMNSLKTEDTAVYYCTGGYYPVYWGQGTLVTVSS
VL: DIQMTQSPSSLSASVGDRVTITCKASQDINKNIAWYQHKPGKAPKLLIHYTSTLQPGVPSRFSGSGSGTDFTFTISSLQPEDIATYYCLQYDNLLTFGGGTKVEIK
notes: also called H1/L2; H1-L2
As to B3, in assay [1], the Kd was found to be 5.61 nM and the koff was 0.00132 s⁻¹. Also, in assay [2], the Kd was 1.63 nM and the koff was found to be 0.000109 s⁻¹.

B4: Hum22-K32-15C11 (antibody, V domains shown)
VH: EVQLVESGGGLVQPGGSLRLSCAASGFTFSDAWMDWVRQAPGKGLEWVGEIRSKANNHATYYAASVKGRFTISRDDSKNSLYLQMNSLKTEDTAVYYCTGGYYPVYWGQGTLVTVSS
VL: DIQMTQSPSSLSASVGDRVTITCKASQDINKNIAWYQHKPGKAPKLLIHYTSTLQPGVPSRFSGSGSGTDFTFTISSLQPEDIATYYCLQYDNLLTFGGGTKVEIK
notes: also called H2/L2
As to B4, in assay [1], the Kd was 1.74 nM and the koff came out at 0.000385 s⁻¹. Besides, in assay [2], the Kd was found to be 0.65 nM and the koff turned out to be 0.000156 s⁻¹.

B5: Hum13-K32-15C11 (antibody, V domains shown)
VH: EVQLVESGGGLVQPGGSLRLSCAASGFTFSDAWMDWVRQAPGKGLEWVGRIRSKANNHATAYAASVKGRFTISRDDSKNSLYLQMNSLKTEDTAVYYCTGGYYPVYWGQGTLVTVSS
VL: DIQMTQSPSSLSASVGDRVTITCKASQDINKNIAWYQHKPGKAPKLLIHYTSTLQPGVPSRFSGSGSGRDYTFTISSLQPEDIATYYCLQYDNLLTFGGGTKVEIK
notes: also called H1/L3
B5: the Kd in assay [1] was found to be 4.59 nM; in assay [2], 1.13 nM. The koff in assay [1] was 0.00105 s⁻¹; in assay [2], 0.000286 s⁻¹.

B6: Hum32-K32-15C11 (antibody, V domains shown)
VH: EVQLVESGGGLVQPGGSLRLSCAASGFTFSDAWMDWVRQAPGKGLEWVAEIRSKANNHATYYAASVKGRFTISRDDSKNSVYLQMNSLKTEDTAVYYCTGGYYPVYWGQGTLVTVSS
VL: DIQMTQSPSSLSASVGDRVTITCKASQDINKNIAWYQHKPGKAPKLLIHYTSTLQPGVPSRFSGSGSGTDFTFTISSLQPEDIATYYCLQYDNLLTFGGGTKVEIK
notes: also called H3/L2
Take B6: in assay [1], the Kd is 1.29 nM and the koff was 0.00025 s⁻¹. Moreover, in assay [2], the Kd was 0.51 nM and the koff stood at 0.000104 s⁻¹.

B7: Hum33-K32-15C11 (antibody, V domains shown)
VH: EVQLVESGGGLVQPGGSLRLSCAASGFTFSDAWMDWVRQAPGKGLEWVAEIRSKANNHATYYAASVKGRFTISRDDSKNSVYLQMNSLKTEDTAVYYCTGGYYPVYWGQGTLVTVSS
VL: DIQMTQSPSSLSASVGDRVTITCKASQDINKNIAWYQHKPGKAPKLLIHYTSTLQPGVPSRFSGSGSGRDYTFTISSLQPEDIATYYCLQYDNLLTFGGGTKVEIK
notes: also called H3/L3; H3-L3
With B7, in assay [1], the Kd came out at 0.78 nM and the koff worked out at 0.00018 s⁻¹. Further, in assay [2], the Kd was determined as 0.33 nM and the koff turned out to be 7.8e-05 s⁻¹.

B8: antibody 22B2 (antibody, mouse IgG1, V domains shown)
VH: QIQLVQSGPELKKPGETVKISCKASGYTFTNYGMNWVKQAPGKGLKWMGWINTYTGEPTYADDFKGRFAFSLETSATTAYLQINNLKNEDMATYFCSRSFGSTYGDYWGQGTTLTVSS
VL: DVLMTQTPLSLPVSLGDQASISCRSSQTIVHSNGNTYLEWYLQKPGQSPKLLIYKVSNRFSGVPDRFSGSGSGTDFTLKISRVEAEDLGVYYCFQGSHVPWTFGGGTKLEIK
B8: the binding result in assay [3] was “no binding”. Moreover, in assay [4], the Kd came to 2.2 nM. Also, the “% of cells in gate NK GaM PE+” value in assay [5] stood at 11.6%. For the same molecule, the “% of cells in gate CD4 GaM PE+” value in assay [6] came out at 7.7%.
